According to article PMC5434802:

Columns and labels:
Assay in all cases: EMSA
Conditions in all cases: EMSA conditions not in material; end-labelled fragments pre-incubated with Fis and/or FNR before RNA polymerase
[1] = target: FNR D154A;RNA polymerase D154A (Escherichia coli K-12?;Escherichia coli) (UniProt P0A9E5+P0A7Z4+P0A8V2+P0A8T7+P0A800+P00579)
[2] = target: T1, FNR D154A D154A (Escherichia coli K-12?) (UniProt P0A9E5)
T1 sequence: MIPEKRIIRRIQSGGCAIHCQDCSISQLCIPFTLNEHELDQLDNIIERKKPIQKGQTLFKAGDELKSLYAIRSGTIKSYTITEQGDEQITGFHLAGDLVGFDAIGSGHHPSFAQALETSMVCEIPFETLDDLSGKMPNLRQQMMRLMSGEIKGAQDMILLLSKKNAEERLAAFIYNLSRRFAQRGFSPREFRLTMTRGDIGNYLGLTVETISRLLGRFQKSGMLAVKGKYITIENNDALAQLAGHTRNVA

[3] = target: Fis;FNR D154A D154A (Escherichia coli K-12?;Escherichia coli K-12?) (UniProt P0A6R3+P0A9E5)
[4] = target: Fis;FNR D154A;RNA polymerase D154A (Escherichia coli K-12?;Escherichia coli K-12?;Escherichia coli) (UniProt P0A6R3+P0A9E5+P0A7Z4+P0A8V2+P0A8T7+P0A800+P00579)
[5] = target: T2, Fis (Escherichia coli K-12?) (UniProt P0A6R3)
T2 sequence: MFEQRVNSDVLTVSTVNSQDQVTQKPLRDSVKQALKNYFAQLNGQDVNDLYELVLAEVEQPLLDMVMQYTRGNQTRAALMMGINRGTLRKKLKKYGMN

[6] = target: RNA polymerase (Escherichia coli) (UniProt P0A7Z4+P0A8V2+P0A8T7+P0A800+P00579)

Sequence	binding [1]	binding [2]	binding [3]	binding [4]	binding [5]	binding [6]
AGCTTACATTGCTCGCCCCTATGTGTAACAAATAACCACACTGTGAATGTTGTCTTTAATCAATTGTAAGTGCATGTAAAATACCACTTTAGAGTTAGTCAGG / AATTCCTGACTAACTCTAAAGTGGTATTTTACATGCACTTACAATTGATTAAAGACAACATTCACAGTGTGGTTATTTGTTACACATAGGGGCGAGCAATGTA [pnrf97 E. coli K-12]	binds more weakly	binds	binds	binds more weakly	binds	binds
AATTCCTGACTAACTCTAAAGTGGTATTTTACATGCACTTACAATTGATTAAAGACAACATTCACAGTGTGGTTATTTGTTACACTTAGGGGCGAGCAATGTA / AGCTTACATTGCTCGCCCCTAAGTGTAACAAATAACCACACTGTGAATGTTGTCTTTAATCAATTGTAAGTGCATGTAAAATACCACTTTAGAGTTAGTCAGG [pnrf97 EHEC]	–	binds	binds	–	binds	–
